Reference: the Human Domainome abundance scans (Beltran et al. 2025)

B1: POU domain, class 4, transcription factor 1, residues 266 to 347; numbered along this chain, Q01851 (parent)
chain: RELEAFAERFKQRRIKLGVTQADVGSALANLKIPGVGSLSQSTICRFESLTLSHNNMIALKPILQAWLEEAEGAQREKMNKP

Variants of: B1
Experiment: abundance fitness (aPCA) (normalised: wild type 0, dead -1); higher = more abundant; growth selection in yeast, the domain comes from the species named
Settings: Homo sapiens

Abundance fitness: each site, then its substitutions
V24: L -0.062, C -0.326, E -0.679, S -0.688, P -1.06, M -0.253, D -0.66, H -0.815, T -0.544, N -0.531, F -0.337, R -0.745, A -0.241
G35: T 0.07, S -0.29, R -0.056, L -0.303, A -0.397, I 0.268, M -0.175, D -0.142, F 0.122, W -0.326
L28: Y -0.439, C -0.042, Q -0.628, N -0.459, A -0.422, W -0.555, F -0.129, D -0.624, K -0.601, T -0.312, V -0.074, S -0.639, E -0.782, M -0.09, H -0.332
T20: L -0.078, V -0.567, S -0.117, C 0.008, N -0.261, I -0.725, R -0.087, A -0.052, E -0.124
A27: G -0.153, Y -0.041, Q -0.046, R -0.081, S -0.023, C 0.01, E -0.035, I -0.245, H -0.07, N -0.071, D -0.043, F -0.284, V -0.16, W -0.088, T -0.069, M -0.175, P -1.23, K -0.058, L -0.288
L39: K -0.409, C -0.096, H -0.113, S -0.33, M 0.01, D -0.231, P -0.03, F -0.211, T -0.138, Q -0.368, V 0.001, R -0.487, I 0.042
S26: C -0.03, P -0.221, K -0.029, A 0.011, Y 0.126, H -0.005, T -0.095, G -0.032, V -0.049, N 0.285, L -0.016, M -0.049, W 0.024, R -0.004, F -0.008, D 0.057, Q 0.086
G18: E -0.332, C -0.475, M -0.639, L -0.724, D -0.394, A -0.268, T -0.91, K -0.167, F -0.663, S -0.241, R -0.231
L17: W -0.336, I -0.126, P -1.06, R -0.664, Y -0.33, V -0.286, T -0.779, M -0.072, Q -0.668, N -0.455, K -0.62, S -0.608
A29: L -0.092, K 0.02, R 0.083, E 0.036, C 0.128, P -0.184, G 0.132, I -0.019, V 0.088, W -0.605
S38: C -0.222, F 0.147, P -0.112, V 0.05, H 0.047, L -0.11, G -0.203, R 0.048, A -0.18, E 0.016, W -0.095
P34: T -0.011, W -0.322, I -0.197, E 0.027, A 0, K -0.065, M -0.163, G -0.088, F -0.097, N -0.133, Q -0.027, Y -0.387, L -0.186, H -0.167
G37: D -0.092, R -0.115, P -0.016, F -0.149, K -0.074, M -0.134, Y -0.054, I -0.116, Q -0.121, E 0.015, W -0.328, T -0.076, H -0.05, S -0.047, A -0.045, L -0.121, V -0.093, C -0.058, N 0.035
K32: Y -0.281, C -0.116, D 0.022, L -0.105, S 0.106, T 0.025, W -0.176, Q -0.022, P -0.204, A -0.003, R -0.058, F 0.031, E 0.016, G -0.101, M 0.018, V -0.009, N -0.076, I -0.165
A22: W -0.038, M -0.237, I -0.218, D -0.121, P 0.13, G -0.017, V -0.242, H 0.01, N 0.11, T -0.068, Y 0.043, E 0.043, C -0.098
Q21: Y -0.07, T -0.072, M -0.111, R -0.058, K 0.062, C -0.083, I 0.022, H 0.006, W -0.141, A -0.044, F -0.072, S -0.09, E -0.023, N -0.516, V -0.083, P -0.045
V19: Y -0.027, R -0.019, P -0.827, Q 0.11, H -0.14, E -0.396, C -0.104, D -0.308, M 0.096, T -0.125, L -0.016, G -0.55, S -0.062, W -0.016, I -0.012, K 0.003
D23: T -0.118, G -0.067, C -0.185, M -0.022, R -0.173, Y -0.115, E 0.027, N -0.067, S -0.027, V -0.152, L -0.281, P -0.913, F -0.208, A -0.009, W -0.405, Q 0.016, H -0.156
L31: H -0.014, V -0.006, I -0.028, K 0.038, D -0.152, C -0.057, P -0.26, R -0.005, N -0.168, G -0.223, S -0.066, A -0.059, T 0.051, M 0.003, Q -0.04
V36: N -0.327, L 0.003, C -0.225, Y -0.257, I 0.013, R -0.214, Q -0.252, G -0.142, S -0.096, T 0.24, M -0.189, K -0.138, E -0.125, D -0.463
I33: V 0.05, N -0.219, T -0.145, R -0.217, D -0.262, C -0.005, L 0.024, G -0.282, W -0.114, S -0.23, E -0.22, M -0.056, A -0.139, Q -0.295, K -0.203, H -0.147, Y -0.21, F -0.091
N30: M -0.104, Q 0.026, R -0.063, I 0.054, E -0.043, K 0.113, L -0.084, P 0.06, F 0.037, A 0.028, W -0.144, Y 0.033, S 0.091, C -0.337, V -0.233, H 0.054, T -0.046, G -0.009
G25: Q -0.001, T -0.012, F -0.119, A 0.04, V 0.068, E 0.05, D 0.037, K 0.009, L -0.038, S 0.001, Y -0.058, W -0.007, N -0.117, H 0.122, M -0.009, C 0.025
